Legend:
[1] = biological target: wild-type cystic fibrosis transmembrane conductance regulator (CFTR) (Homo sapiens (Human)) (UniProt P13569); assay: CFTR co-IP, MudPIT MS; BHK wt, Calu-3, HT29, T84
[2] = biological target: ΔF508 CFTR (Homo sapiens (Human)) (UniProt P13569); assay: CFTR co-IP, MudPIT MS; ΔF508
[3] = biological target: wild-type cystic fibrosis transmembrane conductance regulator (CFTR) (Homo sapiens (Human)) (UniProt P13569); assay: CFTR co-IP, MudPIT MS; HT29 cells
[4] = biological target: wild-type cystic fibrosis transmembrane conductance regulator (CFTR) (Homo sapiens (Human)) (UniProt P13569); assay: CFTR co-IP, MudPIT MS; Calu-3 cells
[5] = biological target: ΔF508 CFTR (Homo sapiens (Human)) (UniProt P13569); assay: CFTR co-IP and Hsp90 immunoblot; HEK293 ΔF508 cells, ~60% knock-down of Aha1
[6] = biological target: wild-type cystic fibrosis transmembrane conductance regulator (CFTR) (Homo sapiens (Human)) (UniProt P13569); assay: CFTR co-IP, MudPIT MS; BHK cells

wild-type cystic fibrosis transmembrane conductance regulator (CFTR) (Homo sapiens (Human)), sequence (P13569 whole entry): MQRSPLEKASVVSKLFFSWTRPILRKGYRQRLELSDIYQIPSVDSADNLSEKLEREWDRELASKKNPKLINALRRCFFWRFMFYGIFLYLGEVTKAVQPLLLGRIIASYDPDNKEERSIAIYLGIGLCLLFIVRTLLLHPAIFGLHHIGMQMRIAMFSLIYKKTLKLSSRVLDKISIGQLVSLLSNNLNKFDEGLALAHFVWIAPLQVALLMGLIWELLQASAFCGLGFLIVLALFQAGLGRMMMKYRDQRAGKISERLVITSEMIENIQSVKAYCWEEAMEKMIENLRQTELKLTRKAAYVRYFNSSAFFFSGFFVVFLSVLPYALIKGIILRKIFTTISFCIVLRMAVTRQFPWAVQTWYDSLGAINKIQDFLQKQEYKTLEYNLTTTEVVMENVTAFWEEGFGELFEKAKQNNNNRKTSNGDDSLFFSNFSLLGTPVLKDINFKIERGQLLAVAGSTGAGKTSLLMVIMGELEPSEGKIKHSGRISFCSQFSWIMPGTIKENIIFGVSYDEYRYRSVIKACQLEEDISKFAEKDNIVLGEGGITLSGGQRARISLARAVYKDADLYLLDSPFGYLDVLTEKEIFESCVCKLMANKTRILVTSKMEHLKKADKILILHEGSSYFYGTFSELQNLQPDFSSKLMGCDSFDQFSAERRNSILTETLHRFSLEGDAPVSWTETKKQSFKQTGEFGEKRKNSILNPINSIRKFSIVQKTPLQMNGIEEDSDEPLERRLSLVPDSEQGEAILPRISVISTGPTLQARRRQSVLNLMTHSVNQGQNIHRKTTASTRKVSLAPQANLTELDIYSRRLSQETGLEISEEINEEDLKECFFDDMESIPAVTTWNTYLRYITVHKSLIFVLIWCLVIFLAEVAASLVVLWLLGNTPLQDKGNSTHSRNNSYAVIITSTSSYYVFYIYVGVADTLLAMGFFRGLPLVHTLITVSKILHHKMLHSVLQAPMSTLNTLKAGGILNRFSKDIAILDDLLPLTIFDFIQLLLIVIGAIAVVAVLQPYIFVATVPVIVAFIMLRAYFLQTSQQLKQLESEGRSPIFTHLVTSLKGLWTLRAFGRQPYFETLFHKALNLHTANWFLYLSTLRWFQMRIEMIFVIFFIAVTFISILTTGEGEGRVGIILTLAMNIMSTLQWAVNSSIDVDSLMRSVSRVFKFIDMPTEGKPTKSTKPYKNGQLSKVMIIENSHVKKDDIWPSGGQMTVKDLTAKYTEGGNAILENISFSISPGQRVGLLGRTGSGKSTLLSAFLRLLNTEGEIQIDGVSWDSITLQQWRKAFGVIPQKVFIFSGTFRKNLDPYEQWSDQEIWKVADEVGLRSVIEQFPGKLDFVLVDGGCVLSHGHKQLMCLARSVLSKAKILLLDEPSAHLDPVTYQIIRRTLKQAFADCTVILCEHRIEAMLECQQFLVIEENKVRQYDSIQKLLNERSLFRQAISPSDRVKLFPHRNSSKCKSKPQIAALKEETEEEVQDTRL
ΔF508 CFTR (Homo sapiens (Human)), sequence (P13569 other isoform, or with tags, fused parts or gaps mutant limits assumed): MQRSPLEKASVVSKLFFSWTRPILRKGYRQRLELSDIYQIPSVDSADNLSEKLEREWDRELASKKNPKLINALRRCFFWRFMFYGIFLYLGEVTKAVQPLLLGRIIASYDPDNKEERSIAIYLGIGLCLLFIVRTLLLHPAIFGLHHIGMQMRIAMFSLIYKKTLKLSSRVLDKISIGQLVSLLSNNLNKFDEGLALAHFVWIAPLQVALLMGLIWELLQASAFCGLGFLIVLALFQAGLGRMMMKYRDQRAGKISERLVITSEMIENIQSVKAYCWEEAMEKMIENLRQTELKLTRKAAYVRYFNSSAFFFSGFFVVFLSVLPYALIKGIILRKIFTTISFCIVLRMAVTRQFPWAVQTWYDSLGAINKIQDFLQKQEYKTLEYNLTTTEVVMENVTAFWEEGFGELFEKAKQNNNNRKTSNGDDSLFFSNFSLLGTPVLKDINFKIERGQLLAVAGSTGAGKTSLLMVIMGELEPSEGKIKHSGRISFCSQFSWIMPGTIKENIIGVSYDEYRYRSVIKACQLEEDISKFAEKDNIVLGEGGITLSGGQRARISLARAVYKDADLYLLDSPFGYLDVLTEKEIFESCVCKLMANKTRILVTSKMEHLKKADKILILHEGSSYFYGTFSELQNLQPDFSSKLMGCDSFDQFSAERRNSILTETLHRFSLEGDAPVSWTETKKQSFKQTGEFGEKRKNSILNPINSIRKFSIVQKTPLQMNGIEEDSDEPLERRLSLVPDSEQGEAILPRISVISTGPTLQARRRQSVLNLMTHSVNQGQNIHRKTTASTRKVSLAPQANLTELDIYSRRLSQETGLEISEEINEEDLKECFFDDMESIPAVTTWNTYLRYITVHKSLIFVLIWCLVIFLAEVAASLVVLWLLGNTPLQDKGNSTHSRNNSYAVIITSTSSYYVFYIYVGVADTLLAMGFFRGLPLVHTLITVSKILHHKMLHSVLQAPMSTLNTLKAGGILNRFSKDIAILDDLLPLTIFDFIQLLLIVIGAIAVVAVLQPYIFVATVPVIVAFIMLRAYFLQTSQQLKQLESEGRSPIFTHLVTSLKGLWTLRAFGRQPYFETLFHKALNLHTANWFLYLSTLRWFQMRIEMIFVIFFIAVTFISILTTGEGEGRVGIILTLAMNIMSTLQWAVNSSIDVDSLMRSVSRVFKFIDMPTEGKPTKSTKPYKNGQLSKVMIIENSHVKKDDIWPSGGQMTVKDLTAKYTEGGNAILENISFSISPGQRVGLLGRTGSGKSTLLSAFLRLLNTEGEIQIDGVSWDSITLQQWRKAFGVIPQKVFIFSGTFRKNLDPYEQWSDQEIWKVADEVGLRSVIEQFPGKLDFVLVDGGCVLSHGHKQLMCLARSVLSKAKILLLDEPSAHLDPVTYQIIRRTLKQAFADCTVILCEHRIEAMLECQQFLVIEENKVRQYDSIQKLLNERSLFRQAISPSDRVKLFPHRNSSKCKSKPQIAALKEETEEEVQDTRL

Row | Substance | % sequence coverage [1] [%] | total peptide spectra [1] [spectra] | unique peptide spectra [1] [spectra] | % sequence coverage [2] [%] | total peptide spectra [2] [spectra] | unique peptide spectra [2] [spectra] | other results
1 | proteasome 26S, non-ATPase, 2 (from UniProt Q13200 1-908) | 4 | 2 | 2 | 13 | 8 | 7 | –
2 | NHERF-2 (from UniProt Q15599 1-337) | – | – | – | – | – | – | % sequence coverage [3]: 20%; total peptide spectra [3]: 10 spectra; unique peptide spectra [3]: 7 spectra; % sequence coverage [4]: 14%; total peptide spectra [4]: 5 spectra; unique peptide spectra [4]: 4 spectra
3 | Hsp90 | – | – | – | – | – | – | decrease of bound Hsp90 (ratio of Hsp90 to CFTR in the immunoprecipitate) after Aha1 dsRNA against scrambled control [5]: 50 to 60%
4 | ubiquitin protein ligase E3A (from UniProt Q05086 1-875) (enzyme) | 6 | 2 | 2 | – | – | – | –
5 | proteasome 26S, ATPase, 4 (from UniProt P43686 1-418) | – | – | – | 12 | 3 | 2 | –
6 | proteasome, beta type, 4 (from UniProt P28070 46-264) | – | – | – | 16 | 2 | 2 | –
7 | ubiquitin specific protease 9 (from UniProt Q93008 1-2554) (enzyme) | 1 | 3 | 2 | – | – | – | –
8 | proteasome, beta type 1 (from UniProt O09061 28-240) | – | – | – | 23 | 3 | 3 | –
9 | proteasome 26S, non-ATPase, 11 (from UniProt O00231 2-422) | – | – | – | 5 | 2 | 2 | –
10 | Sec61, alpha subunit 2 (from UniProt Q9H9S3 1-476) | 11 | 2 | 2 | – | – | – | –
11 | Sec61 alpha subunit isoform 1 (from UniProt P61619 1-476) | 11 | 7 | 4 | – | – | – | –
12 | NHERF-1 (from UniProt O14745 2-358) | – | – | – | – | – | – | % sequence coverage [3]: 11%; total peptide spectra [3]: 2 spectra; unique peptide spectra [3]: 2 spectra; % sequence coverage [6]: 20%; total peptide spectra [6]: 6 spectra; unique peptide spectra [6]: 5 spectra
13 | VCP/p97/Cdc48 (from UniProt P55072 2-806) | 7 | 2 | 2 | 25 | 14 | 10 | –
14 | proteasome, beta type, 3 (from UniProt P49720 2-205) | – | – | – | 24 | 3 | 3 | –
15 | THR interactor 12 (from UniProt Q14669 2-1992) | 2 | 2 | 2 | – | – | – | –

From US20080014191A1
